Experimental data taken from patent publication US20050008653.

Assays:
[1] = molecular target: p53 core domain I195T I195T (UniProt P04637); experiment: FP
[2] = molecular target: p53 core domain wild-type (UniProt P04637); experiment: FP; settings: wild-type value quoted for comparison; CDB3 did not affect wild-type DNA binding

## Gadd45 30-mer DNA
[1]; after 1 h at 10 C with 100 uM CDB3 peptide
  Kd: 1000 nM
[1]; no peptide, 10 C incubation, 1:1 binding fit
  Kd: 6000 nM
[2]
  Kd: 800 nM
